# B1: Twister Ribozyme (parent)
# chain: AACACUGCCAAUGCCGGUCCCAAGCCCGGAUAAAAGUGGAGGGGGCGG
# Variants of: B1
# Experiment: self-cleavage, relative activity (ratio to wild type); higher = more cleavage; co-transcriptional
row,Variant,self-cleavage
1,A2G G13U,0.0873
2,A2G G16C,0.119
3,A2G G17A,0.113
4,A2G G17C,0.0381
5,A2G G24A,0.082
6,A2G G24C,0.0995
7,A2G G28A,0.269
8,A2G G36A,0.118
9,A2G G38A,0.448
10,A2G G38C,0.118
11,A2G G39C,0.0951
12,A2G G39U,0.122
13,A2G G41A,0.102
14,A2G G41U,0.0697
15,A2G G42A,0.148
16,A2G G43A,0.104
17,A2G G43C,0.122
18,A2G G43U,0.119
19,A2G G45C,0.0901
20,A2G G47A,0.232
21,A2G G47U,0.117
22,A2G G48C,0.389
23,A2G G48U,0.255
24,A2G U6A,0.192

row,Variant,self-cleavage
1,A2G U12A,0.367
2,A2G U12G,0.252
3,A2G U18A,0.123
4,A2G U18G,0.0967
5,A2G U31A,0.328
6,A2G U31C,0.3
7,A2G U31G,0.324
8,A2G U37C,0.0955
9,A2U,0.738
10,A2U A4G,0.413
11,A2U A4U,0.0802
12,A2U A10C,0.449
13,A2U A10U,0.604
14,A2U A11C,0.309
15,A2U A11U,0.75
16,A2U A22C,0.311
17,A2U A22G,0.0815
18,A2U A23G,0.0976
19,A2U A30U,0.713
20,A2U A32U,0.722
21,A2U A33C,0.457
22,A2U A33U,0.655
23,A2U A34G,0.292
24,A2U A35C,0.745

row,Variant,self-cleavage
1,A2U A40G,0.163
2,A2U C3A,0.077
3,A2U C3G,0.113
4,A2U C3U,0.221
5,A2U C5A,0.13
6,A2U C5G,0.172
7,A2U C5U,0.448
8,A2U C8G,0.0705
9,A2U C8U,0.109
10,A2U C9A,0.0899
11,A2U C9U,0.133
12,A2U C14A,0.531
13,A2U C15A,0.194
14,A2U C15G,0.0661
15,A2U C19A,0.129
16,A2U C19U,0.163
17,A2U C20G,0.0669
18,A2U C21A,0.0621
19,A2U C21G,0.0765
20,A2U C21U,0.0725
21,A2U C25A,0.0735
22,A2U C25G,0.0728
23,A2U C25U,0.169
24,A2U C26A,0.131

row,Variant,self-cleavage
1,A2U C27A,0.124
2,A2U C27G,0.126
3,A2U C27U,0.357
4,A2U C46G,0.53
5,A2U G7C,0.0748
6,A2U G16A,0.256
7,A2U G17A,0.131
8,A2U G24A,0.112
9,A2U G24C,0.109
10,A2U G28U,0.519
11,A2U G29A,0.474
12,A2U G29U,0.484
13,A2U G36C,0.129
14,A2U G38A,0.789
15,A2U G38C,0.252
16,A2U G38U,0.184
17,A2U G39C,0.18
18,A2U G39U,0.188
19,A2U G41U,0.157
20,A2U G42A,0.164
21,A2U G42C,0.134
22,A2U G42U,0.172
23,A2U G43A,0.128
24,A2U G45U,0.344

row,Variant,self-cleavage
1,A2U G47A,0.292
2,A2U G48A,0.353
3,A2U G48C,0.67
4,A2U U6A,0.185
5,A2U U6G,0.0884
6,A2U U12A,0.667
7,A2U U12G,0.557
8,A2U U18A,0.0781
9,A2U U18G,0.0917
10,A2U U31A,0.605
11,A2U U31G,0.626
12,A2U U37A,0.202
13,C3A A4C,0.0653
14,C3A A4U,0.0689
15,C3A A10C,0.308
16,C3A A11C,0.153
17,C3A A11U,0.212
18,C3A A22C,0.115
19,C3A A22G,0.0923
20,C3A A23C,0.0997
21,C3A A30C,0.225
22,C3A A30G,0.202
23,C3A A32C,0.188
24,C3A A32G,0.0493

row,Variant,self-cleavage
1,C3A A32U,0.278
2,C3A A33G,0.0867
3,C3A A34G,0.1
4,C3A A34U,0.252
5,C3A A35C,0.315
6,C3A A35U,0.16
7,C3A A40C,0.0582
8,C3A C5A,0.0993
9,C3A C5G,0.265
10,C3A C5U,0.159
11,C3A C9U,0.0898
12,C3A C14G,0.0567
13,C3A C15A,0.101
14,C3A C15G,0.0656
15,C3A C15U,0.108
16,C3A C19G,0.0471
17,C3A C20A,0.0829
18,C3A C20G,0.0637
19,C3A C21A,0.0913
20,C3A C25A,0.0581
21,C3A C25G,0.12
22,C3A C26U,0.132
23,C3A C27A,0.148
24,C3A C27U,0.183

row,Variant,self-cleavage
1,C3A C46A,0.2
2,C3A C46G,0.117
3,C3A C46U,0.244
4,C3A G7C,0.0682
5,C3A G13A,0.207
6,C3A G13U,0.127
7,C3A G16U,0.141
8,C3A G17C,0.0654
9,C3A G17U,0.0649
10,C3A G24C,0.0654
11,C3A G28A,0.183
12,C3A G28U,0.144
13,C3A G29C,0.184
14,C3A G38C,0.297
15,C3A G39A,0.0266
16,C3A G39U,0.0737
17,C3A G41C,0.07
18,C3A G42U,0.0908
19,C3A G43A,0.0599
20,C3A G44C,0.207
21,C3A G44U,0.253
22,C3A G45C,0.0823
23,C3A G45U,0.152
24,C3A G47A,0.245

row,Variant,self-cleavage
1,C3A G47U,0.229
2,C3A G48C,0.251
3,C3A U6C,0.0414
4,C3A U6G,0.121
5,C3A U12A,0.0973
6,C3A U12G,0.159
7,C3A U18A,0.0528
8,C3A U18C,0.0738
9,C3A U18G,0.0709
10,C3A U37G,0.17
11,C3G A4C,0.114
12,C3G A4G,0.462
13,C3G A4U,0.13
14,C3G A10G,0.872
15,C3G A11U,0.762
16,C3G A22C,0.481
17,C3G A22G,0.124
18,C3G A30C,0.167
19,C3G A32C,0.379
20,C3G A32U,0.593
21,C3G A33U,0.526
22,C3G A35G,0.317
23,C3G A35U,0.488
24,C3G A40C,0.12

row,Variant,self-cleavage
1,C3G A40U,0.113
2,C3G C5A,0.117
3,C3G C5G,0.101
4,C3G C5U,0.309
5,C3G C8A,0.174
6,C3G C9A,0.0934
7,C3G C9G,0.139
8,C3G C14A,0.418
9,C3G C14G,0.0805
10,C3G C14U,0.47
11,C3G C19A,0.0808
12,C3G C20A,0.0892
13,C3G C21G,0.0504
14,C3G C21U,0.0445
15,C3G C25A,0.0782
16,C3G C26G,0.0704
17,C3G C27A,0.0737
18,C3G C46A,0.624
19,C3G C46G,0.568
20,C3G C46U,0.583
21,C3G G7A,0.0769
22,C3G G7C,0.0501
23,C3G G13A,0.138
24,C3G G13C,0.124

row,Variant,self-cleavage
1,C3G G17A,0.213
2,C3G G24A,0.0502
3,C3G G24U,0.0918
4,C3G G29A,0.348
5,C3G G36C,0.0943
6,C3G G38A,0.559
7,C3G G38C,0.449
8,C3G G38U,0.607
9,C3G G39A,0.0984
10,C3G G39C,0.0914
11,C3G G39U,0.107
12,C3G G41U,0.142
13,C3G G43A,0.12
14,C3G G43C,0.101
15,C3G G43U,0.124
16,C3G G44A,0.509
17,C3G G45U,0.31
18,C3G G47C,0.149
19,C3G U6A,0.13
20,C3G U6C,0.0367
21,C3G U6G,0.015
22,C3G U18A,0.116
23,C3G U18G,0.0365
24,C3G U31A,0.57

row,Variant,self-cleavage
1,C3G U31C,0.347
2,C3G U37A,0.421
3,C3G U37C,0.18
4,C3G U37G,0.478
5,C3U A4C,0.106
6,C3U A4U,0.12
7,C3U A11C,0.191
8,C3U A11G,0.438
9,C3U A11U,0.428
10,C3U A23G,0.101
11,C3U A23U,0.194
12,C3U A30U,0.397
13,C3U A33G,0.361
14,C3U A34C,0.155
15,C3U A35C,0.493
16,C3U A35U,0.421
17,C3U A40G,0.0544
18,C3U A40U,0.0995
19,C3U C5A,0.219
20,C3U C5G,0.105
21,C3U C5U,0.315
22,C3U C9U,0.253
23,C3U C15A,0.195
24,C3U C19A,0.0875

row,Variant,self-cleavage
1,C3U C19U,0.374
2,C3U C20U,0.308
3,C3U C21A,0.0567
4,C3U C21G,0.221
5,C3U C25U,0.238
6,C3U C26G,0.0758
7,C3U C26U,0.138
8,C3U C27A,0.159
9,C3U C27G,0.0437
10,C3U C27U,0.231
11,C3U C46A,0.338
12,C3U G7U,0.0522
13,C3U G13C,0.168
14,C3U G13U,0.113
15,C3U G16A,0.248
16,C3U G16C,0.163
17,C3U G16U,0.183
18,C3U G17A,0.174
19,C3U G24C,0.0842
20,C3U G24U,0.0933
21,C3U G28A,0.409
22,C3U G28C,0.167
23,C3U G29A,0.32
24,C3U G36C,0.0744

row,Variant,self-cleavage
1,C3U G36U,0.064
2,C3U G38A,0.396
3,C3U G38C,0.288
4,C3U G39A,0.146
5,C3U G39C,0.0856
6,C3U G41U,0.14
7,C3U G42C,0.159
8,C3U G43A,0.0963
9,C3U G43C,0.0646
10,C3U G43U,0.0863
11,C3U G44C,0.446
12,C3U G45A,0.422
13,C3U G45C,0.179
14,C3U G45U,0.338
15,C3U G47A,0.361
16,C3U G47U,0.513
17,C3U G48A,0.381
18,C3U G48C,0.484
19,C3U U6A,0.144
20,C3U U6C,0.0788
21,C3U U12A,0.41
22,C3U U12C,0.39
23,C3U U12G,0.391
24,C3U U31A,0.249

row,Variant,self-cleavage
1,C3U U37A,0.533
2,A4C,0.218
3,A4C A10U,0.203
4,A4C A11G,0.193
5,A4C A22C,0.0993
6,A4C A22U,0.0826
7,A4C A23G,0.0448
8,A4C A30G,0.163
9,A4C A30U,0.189
10,A4C A32G,0.146
11,A4C A32U,0.159
12,A4C A34C,0.0803
13,A4C A35C,0.301
14,A4C A35U,0.272
15,A4C C5A,0.0937
16,A4C C8G,0.071
17,A4C C9A,0.114
18,A4C C14G,0.0948
19,A4C C15A,0.12
20,A4C C15U,0.271
21,A4C C19A,0.0783
22,A4C C19G,0.0582
